Legend:
[1] = molecular target: T1, human IL-17A/F heterodimer (human, UniProt Q16552 24-155; Q96PD4 31-163, limits assumed, biotinylated with Sulfo-NHS-LC-Biotin in the AlphaScreen assays only); assay: AlphaScreen competition, hIL-17A/F - IL-17RC-Fc
T1 construct: also called hIL-17A/F
Target sequence in this assay (Q16552 24-155 limits assumed, chain 1 of 2, one chain of several): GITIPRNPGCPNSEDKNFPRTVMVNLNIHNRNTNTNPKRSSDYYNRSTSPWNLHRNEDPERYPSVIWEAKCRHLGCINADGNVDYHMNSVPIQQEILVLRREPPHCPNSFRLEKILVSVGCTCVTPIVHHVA
Method: (§1) To this mixture, the IL-17RA or IL-17RC Fc-fusions, Acceptor beads and the streptavidin Donor beads were added and further incubated for 1 hour at RT.

human IL-17F [2] = molecular target: T2, human IL-17F (human, UniProt Q96PD4 31-163, biotinylated with Sulfo-NHS-LC-Biotin in the AlphaScreen assays only); assay: cell-based or functional assay
T2 sequence: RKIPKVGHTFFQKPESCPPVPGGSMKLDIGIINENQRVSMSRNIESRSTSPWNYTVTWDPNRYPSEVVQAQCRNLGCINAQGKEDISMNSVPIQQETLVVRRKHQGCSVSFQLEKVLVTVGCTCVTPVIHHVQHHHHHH

human IL-17F [3] = molecular target: T2, human IL-17F; assay: SPR Biacore, hIL-17F on chip; purified protein
Method: (§2) Off-rates of the periplasmic extracts containing anti-IL-17 Nanobodies were measured by Surface Plasmon Resonance (SPR) using a Biacore T100 instrument. […] Periplasmic extracts containing IL-17 neutralizing Nanobodies were injected for 2 minutes at a flow rate of 45 μl/min to allow binding to chip-bound antigen. Next, binding buffer without periplasmic extracts was sent over the chip at the same flow rate to allow spontaneous dissociation of bound Nanobody. From the sensorgrams obtained for the different periplasmic extracts koff-values (k₄) were calculated.

human IL-17A [4] = molecular target: T3, human IL-17A (human, UniProt Q16552 24-155, biotinylated with Sulfo-NHS-LC-Biotin in the AlphaScreen assays only); assay: AlphaScreen competition, hIL-17A - IL-17RC-Fc;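 also: Read-out after 1 h at room temperature with the receptor Fc-fusion, Acceptor beads and streptavidin-coated Donor beads present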
T3 construct: also called hIL-17A; recombinant human IL-17A
T3 sequence (Q16552 other isoform, or with tags, fused parts or gaps): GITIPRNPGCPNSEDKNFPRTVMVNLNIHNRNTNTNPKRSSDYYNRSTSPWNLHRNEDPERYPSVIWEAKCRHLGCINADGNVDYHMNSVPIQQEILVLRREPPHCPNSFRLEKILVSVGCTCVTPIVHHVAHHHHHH
Method: as §1

[5] = molecular target: T1, human IL-17A/F heterodimer; assay: cell-based or functional assay
Target sequence in this assay (Q16552 24-155 limits assumed, chain 1 of 2, one chain of several): as the sequence (Q16552 24-155 limits assumed, chain 1 of 2, one chain of several) above

[6] = molecular target: T1, human IL-17A/F heterodimer; assay: AlphaScreen competition, hIL-17A/F - IL-17RA-Fc
Target sequence in this assay (Q16552 24-155 limits assumed, chain 1 of 2, one chain of several): as above
Method: as §1

human IL-17A [7] = molecular target: T3, human IL-17A; assay: AlphaScreen competition, hIL-17A - IL-17RA-Fc;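 also: receptor Fc-fusion plus Acceptor and streptavidin Donor beads incubated with the mixture for 1 h at room temperature before reading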
Method: as §1

human IL-17F [8] = molecular target: T2, human IL-17F; assay: AlphaScreen competition, hIL-17F - IL-17RA-Fc
Method: as §1

human IL-17F [9] = molecular target: T2, human IL-17F; assay: AlphaScreen competition, hIL-17F - IL-17RC-Fc
Method: as §1

[10] = molecular target: T1, human IL-17A/F heterodimer; assay: SPR Biacore, hIL-17A/F on chip; purified protein
human IL-17A [11] = molecular target: T3, human IL-17A; assay: SPR Biacore, hIL-17A on chip; purified protein
human IL-17A [12] = molecular target: T3, human IL-17A; assay: cell-based or functional assay
human IL-17A [13] = molecular target: T3, human IL-17A; assay: SPR Biacore, hIL-17A on chip; periplasmic extract (*)
Method: as §2

B1: 16A04 (VHH)
VHH: EVQLVESGGGLVQAGGSLRLSCAASGRTFSSYVVGWFRQAPGKEREFIGAISGSGDSIYYAVSEKDRFTISRDNGKNTLYLQMSSLKAEDTAVYYCTADQEFGYLRFGRSEYWGQGTQVTVSS
notes: Class 3 Nanobody (anti-IL-17F); also called IL17MS16A04; not shown: c-myc, His6 tag
B1 was tested, and the IC50 [1] was 0.389 nM, the “IL-17F-induced IL-6 production in HT-1080 cells, Emax” value (“IL-17F-induced IL-6 production … Emax” for short) (human IL-17F [2]) was 100% and the “IL-17F-induced IL-6 production in HT-1080 cells, IC50” value (“IL-17F-induced IL-6 production … IC50” for short) (human IL-17F [2]) was 112 nM. For the same binder, the koff (human IL-17F [3]) was 0.00053 s⁻¹, the IC50 (human IL-17A [4]) was > 131 nM and the “IL-17A/F-induced IL-6 production in HT-1080 cells, Emax” value [5] was 95%. For the same binder, the “IL-17A/F-induced IL-6 production in HT-1080 cells, IC50” value [5] was 48.2 nM, the IC50 [6] was 90.4 nM and the IC50 (human IL-17A [7]) was > 77.9 nM. It also gave an IC50 (human IL-17F [8]) of 1.09 nM, an IC50 (human IL-17F [9]) of 0.052 nM and a koff [10] of 0.003 s⁻¹.

B2: 13E02 (VHH)
VHH: EVQLVESGGGLVQAGGSLRLSCAASGRTYDAMGWLRQAPGKEREFVAAISGSGDDTYYADSVKGRFTISKDNAGITMYLQMNSLKPEDTAVYYCATRRGLYYVWDSNDYENWGQGTQVTVSS
notes: Class 4 Nanobody (cross-reactive: anti-IL-17A, IL-17F and IL-17A/F); also called IL17MS13E02; not shown: c-myc, His6 tag
For B2, the IC50 [1] was 0.117 nM, the koff (human IL-17A [11]) was 0.00013 s⁻¹ and the “IL-17F-induced IL-6 production … Emax” value (human IL-17F [2]) was 86.5%. The “IL-17F-induced IL-6 production … IC50” value (human IL-17F [2]) was 104 nM, the “IL-17A-induced IL-6 production in HT-1080 cells, Emax” value (“IL-17A-induced IL-6 production … Emax” for short) (human IL-17A [12]) was 102% and the “IL-17A-induced IL-6 production in HT-1080 cells, IC50” value (from here on “IL-17A-induced IL-6 production … IC50”) (human IL-17A [12]) was 3.5 nM. The koff (human IL-17F [3]) was 0.0036 s⁻¹, the IC50 (human IL-17A [4]) was 0.187 nM and the “IL-17A/F-induced IL-6 production in HT-1080 cells, Emax” value [5] was 108%. The “IL-17A/F-induced IL-6 production in HT-1080 cells, IC50” value [5] was 21.7 nM, the IC50 [6] was 0.071 nM and the IC50 (human IL-17A [7]) was 0.067 nM. For the same binder, the IC50 (human IL-17F [8]) was 0.395 nM, the IC50 (human IL-17F [9]) was 0.214 nM and the koff [10] was 7.1e-05 s⁻¹.

B3: 13B03 (VHH)
VHH: EVQLVESGGGSVQAGDSLRLSCAASGRANSINWFGWFRQTPGKEREFVAGIRWSDAYTEYANSVKGRFTISRDNAKNTVDLQMDSLKPEDTAVYYCVLDLSTVRYWGQGTQVTVSS
notes: Class 4 Nanobody (cross-reactive: anti-IL-17A, IL-17F and IL-17A/F); also called IL17MS13B03; not shown: c-myc, His6 tag
For B3, the IC50 [1] was 0.031 nM, the koff (human IL-17A [11]) was 6.3e-05 s⁻¹ and the “IL-17F-induced IL-6 production … Emax” value (human IL-17F [2]) was 85.5%. The “IL-17F-induced IL-6 production … IC50” value (human IL-17F [2]) was 149 nM, the “IL-17A-induced IL-6 production … Emax” value (human IL-17A [12]) was 101% and the “IL-17A-induced IL-6 production … IC50” value (human IL-17A [12]) was 2.9 nM. The koff (human IL-17F [3]) was 0.0058 s⁻¹, the IC50 (human IL-17A [4]) was 0.202 nM and the “IL-17A/F-induced IL-6 production in HT-1080 cells, Emax” value [5] was 112%. For the same binder, the “IL-17A/F-induced IL-6 production in HT-1080 cells, IC50” value [5] was 26.8 nM, the IC50 [6] was 0.079 nM and the IC50 (human IL-17A [7]) was 0.056 nM. For the same binder, the IC50 (human IL-17F [8]) was 2.11 nM, the IC50 (human IL-17F [9]) was 0.848 nM and the koff [10] was 3.6e-05 s⁻¹.

B4: 10A04 (VHH)
VHH: EVQLVESGGGLVQPGGSLRLSCAASGFTFSSYWMYWVRQAPGKGLEWISALAPGGGNRYYAESVNGRFTISRDNAKNSLYLQMNSLKSEDTAVYYCAKDHNVGYRTGEYDYGGQGTQVTVSS
notes: Class 4 Nanobody (cross-reactive: anti-IL-17A, IL-17F and IL-17A/F); not shown: c-myc, His6 tag
In the case of B4, the IC50 [1] is reported as 15.6 nM, the koff (human IL-17A [13]) is reported as < 0.0002 s⁻¹ and the “IL-17F-induced IL-6 production … Emax” value (human IL-17F [2]) is reported as 102%. For the same binder, the “IL-17F-induced IL-6 production … IC50” value (human IL-17F [2]) was 112 nM, the “IL-17A-induced IL-6 production … Emax” value (human IL-17A [12]) was 31.5% and the “IL-17A-induced IL-6 production … IC50” value (human IL-17A [12]) was 65.4 nM. The koff (human IL-17F [3]) was 0.0048 s⁻¹, the IC50 (human IL-17A [4]) was > 250 nM and the “IL-17A/F-induced IL-6 production in HT-1080 cells, Emax” value [5] was 79.5%. The “IL-17A/F-induced IL-6 production in HT-1080 cells, IC50” value [5] was 122 nM, the IC50 [6] was 37.7 nM and the IC50 (human IL-17A [7]) was 78.1 nM. For the same binder, the IC50 (human IL-17F [8]) was 0.746 nM, the IC50 (human IL-17F [9]) was 0.22 nM and the koff [10] was 0.015 s⁻¹.
